Holding throughout (experiment): pull-down
The target of one data set is T1, MBP-TraR V146E, P33905.
T1 chain: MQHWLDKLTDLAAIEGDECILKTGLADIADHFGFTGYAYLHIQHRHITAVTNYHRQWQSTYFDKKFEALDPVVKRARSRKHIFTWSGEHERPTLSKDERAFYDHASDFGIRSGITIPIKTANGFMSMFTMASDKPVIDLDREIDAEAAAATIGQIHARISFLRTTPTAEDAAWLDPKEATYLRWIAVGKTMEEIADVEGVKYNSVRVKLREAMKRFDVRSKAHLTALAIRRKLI

For the next data set, the target named is T2, MBP-TraR S160F, P33905.
T2 chain: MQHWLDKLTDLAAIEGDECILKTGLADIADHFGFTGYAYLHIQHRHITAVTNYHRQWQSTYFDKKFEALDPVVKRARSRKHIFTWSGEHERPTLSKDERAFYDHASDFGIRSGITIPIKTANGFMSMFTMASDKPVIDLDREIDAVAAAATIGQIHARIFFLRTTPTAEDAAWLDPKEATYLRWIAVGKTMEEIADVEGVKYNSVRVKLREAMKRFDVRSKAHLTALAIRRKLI

For another data set, the target named is T3, MBP-TraR A149V, P33905.
T3 chain: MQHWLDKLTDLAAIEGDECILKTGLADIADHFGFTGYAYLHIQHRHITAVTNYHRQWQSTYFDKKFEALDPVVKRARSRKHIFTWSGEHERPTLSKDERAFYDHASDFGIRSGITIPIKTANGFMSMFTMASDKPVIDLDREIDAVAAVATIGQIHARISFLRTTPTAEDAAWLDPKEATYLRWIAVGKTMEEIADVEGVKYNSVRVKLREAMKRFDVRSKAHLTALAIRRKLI

A further data set concerns the target T4, MBP-TraR I155F, P33905.
T4 chain: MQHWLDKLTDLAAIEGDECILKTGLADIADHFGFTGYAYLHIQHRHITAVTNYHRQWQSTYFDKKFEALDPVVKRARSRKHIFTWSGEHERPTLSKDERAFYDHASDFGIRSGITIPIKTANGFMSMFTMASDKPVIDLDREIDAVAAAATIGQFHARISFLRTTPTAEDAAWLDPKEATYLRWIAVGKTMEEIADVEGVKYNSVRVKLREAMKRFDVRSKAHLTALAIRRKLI

The next data set addresses T5, MBP-TraR A149E, P33905.
T5 chain: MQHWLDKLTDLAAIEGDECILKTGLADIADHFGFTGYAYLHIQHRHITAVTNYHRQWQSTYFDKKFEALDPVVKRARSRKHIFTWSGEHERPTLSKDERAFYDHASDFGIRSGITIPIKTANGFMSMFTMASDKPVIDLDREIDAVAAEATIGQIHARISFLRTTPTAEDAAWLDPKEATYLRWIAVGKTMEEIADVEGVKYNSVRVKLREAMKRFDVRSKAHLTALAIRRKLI

The next data set addresses T6, MBP-TraR A150E, P33905.
T6 chain: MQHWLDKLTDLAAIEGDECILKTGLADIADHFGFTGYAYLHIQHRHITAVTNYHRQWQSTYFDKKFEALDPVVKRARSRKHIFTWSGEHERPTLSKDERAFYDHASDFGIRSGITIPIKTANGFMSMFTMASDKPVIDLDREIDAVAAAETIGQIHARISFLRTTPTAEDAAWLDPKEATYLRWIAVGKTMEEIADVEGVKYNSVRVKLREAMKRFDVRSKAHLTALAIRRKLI

The next data set deals with T7, MBP-TraR A157E, P33905.
T7 chain: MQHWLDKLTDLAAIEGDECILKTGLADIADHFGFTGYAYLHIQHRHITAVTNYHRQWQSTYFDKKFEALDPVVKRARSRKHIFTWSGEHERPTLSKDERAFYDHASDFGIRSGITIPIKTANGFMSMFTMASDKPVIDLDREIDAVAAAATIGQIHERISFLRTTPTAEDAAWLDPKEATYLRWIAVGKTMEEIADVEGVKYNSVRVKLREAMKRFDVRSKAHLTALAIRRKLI

Another data set has as its target T8, MBP-TraR Q154E, P33905.
T8 chain: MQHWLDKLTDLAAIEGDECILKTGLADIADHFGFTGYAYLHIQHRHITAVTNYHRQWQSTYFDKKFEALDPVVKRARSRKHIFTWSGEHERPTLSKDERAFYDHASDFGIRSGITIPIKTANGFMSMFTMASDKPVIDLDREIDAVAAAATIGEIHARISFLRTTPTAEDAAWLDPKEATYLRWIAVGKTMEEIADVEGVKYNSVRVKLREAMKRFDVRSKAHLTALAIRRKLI

This note sets out measurements from paper PMC2739136.

B1: native TraR (wild type) (protein)
chain: MQHWLDKLTDLAAIEGDECILKTGLADIADHFGFTGYAYLHIQHRHITAVTNYHRQWQSTYFDKKFEALDPVVKRARSRKHIFTWSGEHERPTLSKDERAFYDHASDFGIRSGITIPIKTANGFMSMFTMASDKPVIDLDREIDAVAAAATIGQIHARISFLRTTPTAEDAAWLDPKEATYLRWIAVGKTMEEIADVEGVKYNSVRVKLREAMKRFDVRSKAHLTALAIRRKLI
Turning to B1, the heterodimer formation (% of wild type) (% of wild type) with MBP-TraR V146E, P33905 came to 52; in the data set with MBP-TraR S160F, P33905, 69; in the data set with MBP-TraR A149V, P33905, 19; in the data set with MBP-TraR I155F, P33905 it was 50; with MBP-TraR A149E, P33905, 12; in the data set with MBP-TraR A150E, P33905, 14. For the same protein, the heterodimer formation (% of wild type) (% of wild type) turned out to be 48 in the data set with MBP-TraR A157E, P33905 and 25 in the data set with MBP-TraR Q154E, P33905.
